Results from patent US20090269346A1 (RAPTOR PHARMACEUTICAL, published 2009).

Target: T1, VLDLR CR6-8 (human, UniProt P98155 235-358)
T1 construct: range 235-358; also called V CR6-8; not shown: N-terminal hexahistidine and S-peptide from pET30(+)a
Experiment: solid-phase assay, coated CR protein, anti-RAP, OD450
Experimental: Solid phase binding assays-Purified, refolded CR protein (1 μg) was bound to Nunc Maxisorp™ 96-well plates in TBS pH 8 supplemented with 5 mM CaCl₂ (TBSC) overnight at 4° C. Wells were washed with TBSC and then blocked with TBSC containing 2% bovine serum albumin (BSA). RAP ligands were then incubated with the immobilized receptor at a range of concentrations for 2 hours in the above blocking buffer supplemented with 0.05% Tween-20 at room temperature. Control wells contained no added ligand. As an additional control, to determine whether the absence of calcium affected binding, 10 mM EGTA was included in the incubation medium for some samples. Wells were washed with TBSTC and bound ligands detected with polyclonal anti-RAP (BP41/42, 1:1,000, BioMarin). Excess primary antibody was removed and wells washed before incubation with the secondary antibody, HRP-conjugated goat anti rabbit IgG (Bio-Rad). After washing, TMB substrate solutions (Bio-Rad) were added to detect HRP. Color development was stopped with 1N HCl. Absorption at 450 nm was measured with a microplate spectrophotometer (Molecular Devices). Data were plotted and Kd values derived by non-linear regression with the assumption of single-site binding (GraphPad Prism).
Additional assays were performed to assess the binding of wild-type RAP d3 (SEQ ID NO: 92) to each CR pair or set of overlapping pairs was then measured by solid-phase assay (FIG. 5B). Diluted samples were incubated with each test protein, immobilized in multiwell plates. Binding assays were performed as described in Methods. Two independent experiments were performed with triplicate wells for each sample. Means and standard deviations were calculated from the combined values from both experiments and plotted against ligand concentration. Curves were fitted using non-linear regression with a single-site binding model (GraphPad Prism). Kd values with standard deviations were derived from the fitted curves. In all cases, 10 mM EGTA removed >85% of the mean binding signal at the highest concentration of ligand tested.

Kd: > 300 nM
B1: wild-type RAP d3 (ligand)
chain: LDRLRRVSHQGYSTEAEFEEPRVIDLWDLEQSANLTDKELEAFREELKHFEAKIEKHNHYQKQLEIAHEKLRHAESVGDGERVSRSREKHALLEGRTKELGYTVKKHLQDLSGRISRAR
notes: expressed in E. coli from pET30(+)a; not shown: vector-encoded N-terminal tags of pET30(+)a (hexahistidine and S-peptide, as stated for the CR constructs)
